Results published in PMC5701058, “Structure of Rap1b bound to talin reveals a pathway for triggering integrin activation” (Nature Communications, 2017).
One block for each molecule: values may come before it.

B2: mouse talin-H (1–429) (domain or fragment, UniProt P26039 1-429, looked up)
chain: MVALSLKISIGNVVKTMQFEPSTMVYDACRMIRERIPEALAGPPNDFGLFLSDDDPKKGIWLEAGKALDYYMLRNGDTMEYRKKQRPLKIRMLDGTVKTIMVDDSKTVTDMLMTICARIGITNHDEYSLVRELMEEKKDEGTGTLRKDKTLLRDEKKMEKLKQKLHTDDELNWLDHGRTLREQGVEEHETLLLRRKFFYSDQNVDSRDPVQLNLLYVQARDDILNGSHPVSFDKACEFAGFQCQIQFGPHNEQKHKAGFLDLKDFLPKEYVKQKGERKIFQAHKNCGQMSEIEAKVRYVKLARSLKTYGVSFFLVKEKMKGKNKLVPRLLGITKECVMRVDEKTKEVIQEWSLTNIKRWAASPKSFTLDFGDYQDGYYSVQTTEGEQIAQLIAGYIDIILKKKKSKDHFGLEGDEESTMLEDSVSPKKS
notes: talin (talin-1), mouse, head domain, residues 1-429; Talin-H was cloned into pET28t and into pGST-1; also called talin head domain
B6: membrane-anchored Rap1b_TM2 (G12V, C51S, C118S, C141S), loaded with GMP-PNP (natural protein, human, UniProt P61224 1-184, looked up)
chain: MREYKLVVLGSVGVGKSALTVQFVQGIFVEKYDPTIEDSYRKQVEVDAQQSMLEILDTAGTEQFTAMRDLYMKNGQGFALVYSITAQSTFNDLQDLREQILRVKDTDDVPMILVGNKSDLEDERVVGKEQGQNLARQWNNSAFLESSAKSKINVNEIFYDLVRQINRKTPVPGKARKKSSCQLL
modifications: thiol group of Cys 180 joined to the maleimide group of the lipid PE MCC in vesicles
notes: Rap1b, human, with G12V, C51S, C118S, C141S; holds the C-terminal Cys 180 (so in the source); LUVs: 96% POPC, 1% PIP2, 3% PE MCC; MLVs: 87% POPC, 10% PIP2, 3% PE MCC; also called LUV-Rap1b; LUV-Rap1b (GMP-PNP); source: E. coli BL21 (DE3), purified, then tethered to vesicles (LUVs or MLVs) by thiol-maleimide crosslinking

How the values were obtained:
[1] = target: membrane-anchored Rap1b_TM2 (G12V, C51S, C118S, C141S), loaded with GMP-PNP (human) (UniProt P61224); assay: co-sedimentation; vesicle co-sedimentation: 10 μM talin-H or full-length talin with 10 μM MLV-Rap1b, MLV only or MLV + Rap1b; RT 15 min, 22,000 r.p.m. 35 min; pellet on SDS-PAGE, band normalized to MLV only
[2] = target: T1, GFP-Rap1b (G12V), loaded with GMP-PNP (human, UniProt P61224 1-184, G12V); assay: MST; GMP-PNP loaded
[3] = target: T1, GFP-Rap1b (G12V), loaded with GMP-PNP; assay: MST; GMP-PNP loaded; estimated, saturation not reached
[4] = target: B6; assay: co-sedimentation; vesicle co-sedimentation: 10 μM talin-H or full-length talin with 10 μM MLV-Rap1b, MLV only or MLV + Rap1b; RT 15 min, 22,000 r.p.m. 35 min; pellet on SDS-PAGE, band normalized to MLV only; settings: both partners purified
[5] = target: membrane-anchored Rap1b_TM2 (G12V, C51S, C118S, C141S), loaded with GMP-PNP (human, UniProt P61224 1-184, G12V | C51S | C118S | C141S, thiol group of Cys 180 joined to the maleimide group of the lipid PE MCC in vesicles); assay: ITC; LUV-anchored Rap1b, GMP-PNP; 2nd experiment
[6] = target: T2, mouse full-length talin (mouse, UniProt P26039 1-2541); assay: NMR titration; 2D HSQC of 45 μM GMP-PNP loaded 15N-labeled Rap1b (1–167) without and with 90 or 225 μM talin-F0, 90 μM talin-H or 45 μM full-length talin; 25 °C; 25 mM NaH2PO4/Na2HPO4 pH 6.8, 150 mM NaCl, 5 mM MgCl2, 2 mM DTT; settings: both partners purified
T2 construct: talin (talin-1), mouse, full length, in pET28t

[7] = target: B2; assay: as above; settings: both partners purified
[8] = target: T3, Rap1b (G12V), loaded with GMP-PNP (active form) (human, UniProt P61224 1-184, G12V); assay: NMR titration; HSQC titration of 45 μM 15N-labeled talin-F0 with increasing GMP-PNP-loaded Rap1b (G12V); average Kd of four residues; settings: both partners purified
T3 construct: Rap1b, human, with G12V; Loaded with the GTP analog GMP-PNP; Made by mutagenesis; Probably full length; also called active Rap1b; GMP-PNP loaded Rap1b
T3 sequence (looked up): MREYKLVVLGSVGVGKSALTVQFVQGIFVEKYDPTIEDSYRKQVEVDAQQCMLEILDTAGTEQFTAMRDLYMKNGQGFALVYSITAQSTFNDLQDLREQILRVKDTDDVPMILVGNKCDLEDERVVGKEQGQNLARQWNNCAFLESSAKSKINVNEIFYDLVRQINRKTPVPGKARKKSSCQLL

[9] = target: T4, mouse RIAM-RAPH (149–438) (mouse, UniProt Q8R5A3 149-438); assay: MST; 100 nM GFP-Rap1b (G12V) with serial dilutions of the partner; 50 mM Tris-HCl pH 7.5, 100 mM NaCl, 5 mM MgCl2, 2 mM DTT, 0.05% Tween 20; RT; settings: both partners purified
T4 construct: RIAM, mouse, RA-PH domains, residues 149-438
T4 sequence (looked up): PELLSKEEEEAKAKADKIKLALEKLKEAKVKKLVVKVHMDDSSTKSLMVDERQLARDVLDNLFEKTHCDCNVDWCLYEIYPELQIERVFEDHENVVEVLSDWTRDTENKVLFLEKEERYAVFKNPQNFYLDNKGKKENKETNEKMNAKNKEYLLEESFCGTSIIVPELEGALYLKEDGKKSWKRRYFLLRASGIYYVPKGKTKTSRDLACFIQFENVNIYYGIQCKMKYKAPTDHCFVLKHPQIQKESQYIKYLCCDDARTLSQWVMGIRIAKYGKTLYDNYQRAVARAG

[10] = target: B2; assay: ITC; 200 μM talin-H in the syringe into 15 μM LUV-Rap1b (GMP-PNP) in the cell; 25 °C; 25 mM NaH2PO4/Na2HPO4 pH 6.8, 100 mM NaCl, 5 mM MgCl2; single-site model; settings: both partners purified
[11] = target: T2, mouse full-length talin; assay: pull-down; GST pull-down of Fig. 3b, Rap1b with GDP or GTP analog; ~25 μg GST-fused protein on glutathione-Sepharose 4B, 4 °C, 25 mM Tris-HCl pH 7.5, 150 mM NaCl, 5 mM MgCl2, 1 mM DTT, 0.01% NP-40; settings: both partners purified
[12] = target: B2; assay: as above; settings: both partners purified

fold co-sedimentation with vesicles, Rap1b anchored against MLV only [1]: 3 fold
Molecule: mouse full-length talin, P26039 1-2541

Kd [2]: 5.3 µM
B1: mouse RIAM-RAPH (149–438) (domain or fragment)
chain: PELLSKEEEEAKAKADKIKLALEKLKEAKVKKLVVKVHMDDSSTKSLMVDERQLARDVLDNLFEKTHCDCNVDWCLYEIYPELQIERVFEDHENVVEVLSDWTRDTENKVLFLEKEERYAVFKNPQNFYLDNKGKKENKETNEKMNAKNKEYLLEESFCGTSIIVPELEGALYLKEDGKKSWKRRYFLLRASGIYYVPKGKTKTSRDLACFIQFENVNIYYGIQCKMKYKAPTDHCFVLKHPQIQKESQYIKYLCCDDARTLSQWVMGIRIAKYGKTLYDNYQRAVARAG

Molecule: B2
Kd [3]: ~147 µM | fold co-sedimentation with vesicles, Rap1b anchored against MLV only [4]: ~1.5 fold | Kd [5]: 3.64 µM

binding result [6]: binds | binding result [7]: binds
B3: C-terminal truncated Rap1b (1–167, G12V), loaded with GMP-PNP (domain or fragment, human, UniProt P61224 1-167, looked up)
chain: MREYKLVVLGSVGVGKSALTVQFVQGIFVEKYDPTIEDSYRKQVEVDAQQCMLEILDTAGTEQFTAMRDLYMKNGQGFALVYSITAQSTFNDLQDLREQILRVKDTDDVPMILVGNKCDLEDERVVGKEQGQNLARQWNNCAFLESSAKSKINVNEIFYDLVRQINR
notes: Rap1b, human, residues 1-167, G12V, in pET28t; Loaded with GMP-PNP; isotope labelled or unlabelled as the NMR sample needed; The removal of the tag is told for the assignment samples; not shown: His6, N-terminal, cleaved

Kd [8]: ~162 µM | Kd [2]: 237 µM
B4: mouse talin-F0 (1–86) (domain or fragment, UniProt P26039 1-86, looked up)
chain: MVALSLKISIGNVVKTMQFEPSTMVYDACRMIRERIPEALAGPPNDFGLFLSDDDPKKGIWLEAGKALDYYMLRNGDTMEYRKKQR
notes: talin (talin-1), mouse, F0 domain, residues 1-86; Isotope labelled or unlabelled as the NMR sample needed; also called F0 domain of talin

binding result [9]: binds
B5: GFP-Rap1b (G12V), loaded with GMP-PNP (natural protein, human, UniProt P61224 1-184, looked up)
chain: MREYKLVVLGSVGVGKSALTVQFVQGIFVEKYDPTIEDSYRKQVEVDAQQCMLEILDTAGTEQFTAMRDLYMKNGQGFALVYSITAQSTFNDLQDLREQILRVKDTDDVPMILVGNKCDLEDERVVGKEQGQNLARQWNNCAFLESSAKSKINVNEIFYDLVRQINRKTPVPGKARKKSSCQLL
notes: Rap1b (G12V) in a pRSET vector; The name puts GFP first, the methods call it a C-terminal GFP fusion tag; also called GMP-PNP-loaded GFP-Rap1b (G12V); not shown: GFP, C-terminal, kept

Molecule: B6
Kd [10]: ~1.52 µM

binding result [11]: binds | binding result [12]: binds
B7: Rap1b (G12V), GMP-PNP loaded, of the GST pull-down of Fig. 3b (natural protein, human, UniProt P61224 1-184, looked up)
chain: MREYKLVVLGSVGVGKSALTVQFVQGIFVEKYDPTIEDSYRKQVEVDAQQCMLEILDTAGTEQFTAMRDLYMKNGQGFALVYSITAQSTFNDLQDLREQILRVKDTDDVPMILVGNKCDLEDERVVGKEQGQNLARQWNNCAFLESSAKSKINVNEIFYDLVRQINRKTPVPGKARKKSSCQLL
notes: human full-length Rap1b in a pGST-1 vector, with G12V as the active form; also called active Rap1b
